The values below come from US20260116996A1 (REGENTS OF THE UNIVERSITY OF MINNESOTA, published 2026).

B1: recombinant fully human anti-serpinB13 antibody Clone 3 (antibody, human IgG1, kappa, V domains shown)
VH: QVQLQQWGAGLLKPSETLSLTCAVYGGSFSGYYWSWIRQPPGKGLEWIGEINHSGSTNYNPSLKSRVTISVDTSKNQFSLKLSSVTAADTAVYYCARRYCSGGSCYLVGTGSELDYWGQGTLVTVSS
VL: DIQMTQSPSTLSASVGDRVTITCRASQSISSWLAWYQQKPGKAPKLLIYKASSLEIGVPSRFSGSGYGTEFTLTISSLQPDDFATYYCLQYSTHSTFGQGTRVEIKR
notes: also called mAb3; CLONE3-H(m1) / CLONE3-L(m1)
B2: recombinant fully human anti-serpinB13 antibody Clone 1 (antibody, human IgG1, kappa, V domains shown)
VH: QVQLQESGGGVVQPGRSLRLSCAASGFTFSSYGMHWVRQAPGKGLEWVAVISYDGSNKYYADSVKGRFTISRDNSKNTLYLQMNSLRAEDTAVYYCARDLGAVIAVAGTSTPYNWFDPWGQGTLVTVSS
VL: DVVMTQSPLSLPVTPGEPASISCRSRQSLLHSNGHNYLGWYLQKPGQSPQLLIYLASIRASGIPDRFSGSGSGTDFTLKISRVEAEDVGVYYCMQALQTPYTFGQGTKLEIKR
notes: also called mAb1; mAbs1
B3: recombinant fully human anti-serpinB13 antibody Clone 2 (antibody, human IgG1, kappa, V domains shown)
VH: QMQLVQSGGGVVRPGGSLRLSCAASGFTFDDYGMSWVRQAPGKGLEWVSGINWNGGSTGYADSVKGRFTISRDNAKNSLYLQMNSLRAEDTALYYCARESSMTTVTTYLLREVGVGLDFDYWGQGTLVTVSS
VL: ETTLTQSPGTLSLSPGERATLSCRASQTVSGSYLAWYQQKPGQPPRLLIYGASSRATGIPDRFSGSGSGTDFTLTISRLEPEDFAVYYCQDYGSSRTFGQGTKVELKR
notes: also called mAb2; CLONE2-H(m1) / CLONE2-L(m1)

The first assay deals with T1, recombinant human serpinB13 (human, UniProt Q9UIV8 1-391).
T1 construct: The baculovirus-made protein (GenScript) was used for panning, ELISA and the cathepsin L assay; In the Luminex assay human serpinB13 was V5-His tagged and came from 293 cell lysates; also called rhB13
T1 sequence (looked up): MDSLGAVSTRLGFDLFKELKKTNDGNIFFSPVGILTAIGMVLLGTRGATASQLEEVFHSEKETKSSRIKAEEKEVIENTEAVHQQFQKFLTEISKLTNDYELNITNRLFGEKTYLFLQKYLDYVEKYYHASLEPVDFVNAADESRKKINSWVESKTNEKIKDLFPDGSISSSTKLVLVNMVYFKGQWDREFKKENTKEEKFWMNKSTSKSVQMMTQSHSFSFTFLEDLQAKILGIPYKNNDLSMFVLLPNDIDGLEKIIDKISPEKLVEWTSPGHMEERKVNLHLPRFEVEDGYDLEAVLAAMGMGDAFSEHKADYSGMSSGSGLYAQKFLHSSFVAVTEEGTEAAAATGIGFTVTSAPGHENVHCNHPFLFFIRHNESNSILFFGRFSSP
Nature of the assay: Luminex bead assay, beads coated with human serpinB13, antibody at 1.0 µg/mL, background (mean of Gfp and Scgn beads) subtracted. The protocol:
(§1) The latter was determined as the average antibody binding to Luminex beads coated with Gfp and Scgn control antigens. Similar data were obtained for antigen binding of Fab fragments of these antibodies (data not shown).
(§2) Luminex assay. Luminex-based technology was used to measure serpinB13 AA in human samples. Initially, the Luminex beads were precoated with serpinB13, Gfp and Scgn, using precleared lysates of 293 cells that had been transfected with individual cDNAs. Biotinylated mouse anti-human K and 2 chain mAbs (BD Biosciences) (dilution 1:300) and streptavidin (Invitrogen) (dilution 1:200) were used as secondary reagents to measure human serum binding activity to individual antigens. The data were expressed as fluorescence intensity (F.I.) due to serum binding activity in the presence of beads precoated with serpinB13 and after subtracting the average F.I. due to serum binding activity in the presence of beads precoated with control proteins, Gfp and Scgn (e.g. F.I.^B13-[F.I.^GFP+F.I.^Segn]/2). The samples were evaluated based on the level of F.I. and the degree of inhibition of binding to serpin-B13 coated beads with soluble serpinB13 (2.5 μg/mL), compared with the bovine serum albumin (BSA). […] All samples were run blind on three independent occasions. Subjects with serum samples that produced a positive results three times were considered positive. Subjects with serum samples that produced a negative result on at least one occasion were considered negative.
(§3) To determine whether anti-serpin activity is specific, binding of three human recombinant antibodies to serpinB13 was examined for potential cross-reactivity with other clade B serpins. Binding to the beads conjugated with Gfp and Scgn was used to subtract the background and the assay was developed using the same reagents as those described above for measuring serpinB13 AA in serum samples.
Consider B1, for which the binding result is listed as “binds”.
On the same count and under the same terms, the same measure for B2: “binds”; for B3: “binds”.

The next assay deals with T2, human serpinB7 (human, UniProt O75635 1-380).
T2 construct: Luminex antigen captured from a 293 cell lysate; not shown: V5-His tag of the pcDNA3.1 Directional V5-His-TOPO vector
T2 sequence (looked up): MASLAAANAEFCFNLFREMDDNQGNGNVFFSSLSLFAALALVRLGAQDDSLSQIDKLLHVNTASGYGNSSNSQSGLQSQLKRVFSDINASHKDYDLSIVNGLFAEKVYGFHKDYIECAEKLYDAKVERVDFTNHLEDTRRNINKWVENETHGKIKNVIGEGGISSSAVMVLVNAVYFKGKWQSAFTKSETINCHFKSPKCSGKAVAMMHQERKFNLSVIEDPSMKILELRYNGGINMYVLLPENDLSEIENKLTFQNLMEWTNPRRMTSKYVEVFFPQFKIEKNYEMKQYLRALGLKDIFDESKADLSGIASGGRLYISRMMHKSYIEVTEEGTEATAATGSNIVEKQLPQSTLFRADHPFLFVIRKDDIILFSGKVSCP
Nature of the assay: Luminex bead assay, beads coated with human serpinB7, background (Gfp and Scgn beads) subtracted. The protocol: as §1, §2, §3
As to B1, the binding result is listed as “no binding (tested: 1.0 µg/mL)”.
Still for that read-out and setting: the same measure for B2: “no binding (tested: 1.0 µg/mL)”.
On the same count and under the same terms, for B3 the value was “no binding (tested: 1.0 µg/mL)”.
